In one test the target is HLA-B*15:17. Put plainly: IEDB peptide-MHC binding, purified MHC/direct/fluorescence; filed as Kd, often an IC50 or EC50 that approximates it; ≥ and ≤ were set here for values at or beyond the usual limits of such assays. The note with it: source organism: West Nile virus.
The next test addresses HLA-C*03:03. The description is as above.
Another test has as its target HLA-B*57:01. Described as above. Particulars: source organism: West Nile virus.
Another test deals with HLA-B*35:01. Put plainly: IEDB peptide-MHC binding, purified MHC/competitive/fluorescence; filed as Kd, often an IC50 or EC50 that approximates it; ≥ and ≤ were set here for values at or beyond the usual limits of such assays. The note with it: source organism: West Nile virus.
For test [1], the target named is HLA-B*51:01. The description is as above.
The next test has as its target HLA-C*05:01. The test is described as follows: IEDB peptide-MHC binding, purified MHC/direct/fluorescence; filed as Kd, often an IC50 or EC50 that approximates it; ≥ and ≤ were set here for values at or beyond the usual limits of such assays.
The target of the next test is HLA-A*24:02. Put plainly: IEDB peptide-MHC binding, purified MHC/competitive/fluorescence; ≥ and ≤ were set here for values at or beyond the usual limits of such assays. The note with it: source organism: Zaire ebolavirus.
Test [2] addresses HLA-A*01:01. The test is described as above.
The next test has as its target HLA-A*02:12. Put plainly: IEDB peptide-MHC binding, purified MHC/direct/fluorescence; filed as Kd, often an IC50 or EC50 that approximates it; ≥ and ≤ were set here for values at or beyond the usual limits of such assays.
A further test deals with HLA-A*69:01. Described as above.
Test [3] has as its target HLA-A*02:01. The description is as above.
In a further test the target is HLA-A*02:50. The test is described as follows: IEDB peptide-MHC binding, purified MHC/competitive/fluorescence; filed as Kd, often an IC50 or EC50 that approximates it; ≥ and ≤ were set here for values at or beyond the usual limits of such assays.
The target in another test is HLA-A*24:03. The test is described as follows: IEDB peptide-MHC binding, purified MHC/direct/fluorescence; filed as Kd, often an IC50 or EC50 that approximates it; ≥ and ≤ were set here for values at or beyond the usual limits of such assays. The note with it: source organism: Salmonella enterica.
Test [4] has as its target HLA-B*15:01. Described as above. Particulars: source organism: Salmonella enterica.
Test [5] deals with HLA-A*11:01. The test is described as above. The note with it: source organism: Salmonella enterica.
In a further test the target is HLA-B*40:01. The test is described as above. The note with it: source organism: Salmonella enterica.
Another test deals with HLA-B*08:01. The test is described as above. Particulars: source organism: Salmonella enterica.
For test [6], the target named is HLA-A*01:01. The description is as above. Particulars: source organism: Salmonella enterica.
Another test addresses HLA-B*58:01. The description is as above.
Test [7] has as its target HLA-A*31:01. The description is as above. Particulars: source organism: Salmonella enterica subsp. enterica serovar Typhimurium.
In the next test the target is HLA-B*07:02. The description is as above. Particulars: source organism: Salmonella enterica.
A further test addresses HLA-A*26:01. The description is as above. The note with it: source organism: Salmonella enterica.
The target of the next test is HLA-B*27:05. Described as above. Particulars: source organism: Salmonella enterica.
Another test concerns the target HLA-B*44:02. The description is as above. The note with it: source organism: Salmonella enterica.
Test [8] has as its target HLA-A*03:01. The description is as above. The note with it: source organism: Salmonella enterica.
For a further test, the target named is HLA-A*68:01. Put plainly: IEDB peptide-MHC binding, purified MHC/competitive/radioactivity; filed as Kd, often an IC50 or EC50 that approximates it; ≥ and ≤ were set here for values at or beyond the usual limits of such assays. Particulars: source organism: Vaccinia virus WR.
Test [9] has as its target HLA-A*31:01. The test is described as above. Particulars: source organism: Vaccinia virus WR.
The next test addresses HLA-A*33:01. The test is described as above. The note with it: source organism: Vaccinia virus WR.
Test [10] deals with HLA-B*15:01. Put plainly: IEDB peptide-MHC binding, purified MHC/competitive/fluorescence; ≥ and ≤ were set here for values at or beyond the usual limits of such assays. Particulars: source organism: Vaccinia virus Copenhagen.
In test [11] the target is HLA-A*11:01. The description is as above. The note with it: source organism: Vaccinia virus Copenhagen.
In test [12] the target is HLA-A*03:01. Described as above. Particulars: source organism: Vaccinia virus Copenhagen.
The target in test [13] is HLA-A*02:01. The description is as above. Particulars: source organism: Zaire ebolavirus.
The next test addresses HLA-A*68:02. The test is described as follows: IEDB peptide-MHC binding, purified MHC/competitive/fluorescence; filed as Kd, often an IC50 or EC50 that approximates it; ≥ and ≤ were set here for values at or beyond the usual limits of such assays. The note with it: source organism: Entamoeba histolytica HM-1:IMSS.
Another test deals with HLA-C*07:02. Put plainly: IEDB peptide-MHC binding, purified MHC/direct/fluorescence; filed as Kd, often an IC50 or EC50 that approximates it; ≥ and ≤ were set here for values at or beyond the usual limits of such assays. The note with it: source organism: Mycobacterium tuberculosis variant bovis BCG str. Pasteur 1173P2.
Another test deals with HLA-B*46:01. The test is described as follows: IEDB peptide-MHC binding, purified MHC/competitive/fluorescence; filed as Kd, often an IC50 or EC50 that approximates it; ≥ and ≤ were set here for values at or beyond the usual limits of such assays. The note with it: source organism: Mycobacterium tuberculosis variant bovis BCG str. Pasteur 1173P2.
The target in test [14] is HLA-B*51:01. Put plainly: IEDB peptide-MHC binding, purified MHC/direct/fluorescence; filed as Kd, often an IC50 or EC50 that approximates it; ≥ and ≤ were set here for values at or beyond the usual limits of such assays. The note with it: source organism: Giardia lamblia ATCC 50803.
The next test deals with HLA-B*15:42. The test is described as follows: IEDB peptide-MHC binding, purified MHC/competitive/fluorescence; filed as Kd, often an IC50 or EC50 that approximates it; ≥ and ≤ were set here for values at or beyond the usual limits of such assays. The note with it: source organism: Giardia lamblia ATCC 50803.
A further test addresses HLA-B*83:01. Described as above. The note with it: source organism: Giardia lamblia ATCC 50803.
A further test deals with HLA-B*45:06. Described as above. Particulars: source organism: Giardia lamblia ATCC 50803.
The mark [15] stands for this setting: source organism: West Nile virus.
Setting [16] is: source organism: Giardia lamblia ATCC 50803.
Where [17] appears, read: source organism: Zaire ebolavirus.
[18] abbreviates: source organism: Vaccinia virus.
Setting [19] is: source organism: Marburg virus - Musoke, Kenya, 1980.
[20] abbreviates: source organism: Salmonella enterica subsp. enterica serovar Typhimurium.
The mark [21] stands for this setting: source organism: Mammarenavirus juninense.
The mark [22] stands for this setting: source organism: Vibrio vulnificus CMCP6.
Where [23] appears, read: source organism: Vibrio vulnificus.
The mark [24] stands for this setting: source organism: Burkholderia mallei.
Setting [25] is: source organism: Burkholderia mallei ATCC 23344.

The term Kd denotes the constant that tells how readily two partners part at equilibrium. Turning to LAVSAYTPW, the Kd with HLA-B*15:17 was 5 nM; with HLA-C*03:03 (setting [15]), at most 1 nM; with HLA-B*57:01 it was 86 nM; in the test with HLA-B*35:01, 5.7 nM; with HLA-B*51:01 [1] (setting [15]), at least 20000 nM.

With MPVSIPTPI, the figures for the Kd in the test with HLA-C*05:01 (setting [16]) and in the test with HLA-B*51:01 [1] (setting [16]) were at least 20000 nM and 340 nM, respectively.

A word on the IC50: it is the point on the concentration scale where inhibition reaches its midpoint. Read a high IC50 as weaker potency. Turning to EIDTTIGEW, the IC50 with HLA-A*24:02 was at least 81700 nM; with HLA-A*01:01 [2] (setting [17]), at least 494000 nM.

As for TLNHNCINV, the Kd came to 19 nM in the test with HLA-A*02:12 (setting [18]), 136 nM in the test with HLA-A*69:01 (source organism: Cowpox virus), 404 nM in the test with HLA-A*02:01 [3] (source organism: Cowpox virus) and 0.2 nM with HLA-A*02:50 (setting [18]).

With FLLDYEGTL, the Kd with HLA-A*69:01 (setting [19]) was 437 nM; in the test with HLA-C*03:03 (source organism: Orthomarburgvirus marburgense), at most 1 nM; in the test with HLA-A*02:01 [3] (setting [19]), 6 nM.

As to LLQGVPFHV, the Kd with HLA-A*69:01 (setting [20]) is 289 nM; with HLA-A*24:03 it was at least 20000 nM; in the test with HLA-B*15:01 [4], at least 20000 nM; in the test with HLA-A*11:01 [5] it was at least 20000 nM; with HLA-B*40:01, at least 20000 nM; with HLA-B*08:01, at least 20000 nM. In addition, the Kd is at least 20000 nM with HLA-A*01:01 [6]; at least 20000 nM with HLA-B*58:01 (source organism: Salmonella enterica); 1810 nM with HLA-A*31:01 [7]; at least 20000 nM in the test with HLA-B*07:02; at least 20000 nM in the test with HLA-A*26:01; at least 20000 nM with HLA-B*27:05. The dissociation constant (Kd) was at least 20000 nM with HLA-B*44:02, at least 20000 nM with HLA-A*03:01 [8], 109 nM with HLA-A*02:01 [3] (setting [20]) and at most 0.1 nM with HLA-A*02:50 (source organism: Salmonella enterica subsp. enterica serovar Paratyphi B str. SPB7).

As for VTAASPMLY, the Kd is 861 nM with HLA-A*68:01, at least 77900 nM with HLA-A*31:01 [9] and 14500 nM with HLA-A*33:01. For the same sequence, the IC50 was determined as 4450 nM in the test with HLA-B*15:01 [10], 1170 nM in the test with HLA-A*11:01 [11], 1290 nM with HLA-A*01:01 [2] (source organism: Vaccinia virus Copenhagen) and 10500 nM with HLA-A*03:01 [12].

As to LFEVDNLTY, the figures for the IC50 in the test with HLA-A*24:02, with HLA-A*01:01 [2] (setting [17]) and with HLA-A*02:01 [13] were 66500 nM, 69100 nM and at least 210000 nM, respectively.

As to RATQPAAEF, the figures for the Kd in the test with HLA-B*58:01 (setting [21]) and in the test with HLA-C*05:01 (setting [21]) were 12.9 nM and 1740 nM, respectively.

MVPKSFTYS yielded a Kd in the test with HLA-A*68:02 of 76.2 nM.

KLTSYSAGL: the Kd with HLA-A*02:12 (setting [22]) was 7 nM; with HLA-A*69:01 (setting [23]), 15100 nM; with HLA-A*02:01 [3] (setting [23]), 21 nM; in the test with HLA-A*02:50 (setting [22]), at most 0.1 nM.

For the sequence FLLDGGAPF, the results for the Kd with HLA-C*03:03 (source organism: Mycobacterium tuberculosis variant bovis BCG str. Pasteur 1173P2), with HLA-C*07:02 and in the test with HLA-B*46:01 were at most 1 nM, 527 nM and 21.2 nM, respectively.

The sequence KIDDMIEEV came in with a Kd with HLA-C*05:01 (source organism: Vaccinia virus WR) of 124 nM.

Regarding YLACKQHAL, the Kd in the test with HLA-A*69:01 (setting [24]) was 292 nM; with HLA-C*03:03 (setting [25]), 24 nM; in the test with HLA-A*02:01 [3] (setting [24]), 62.5 nM; with HLA-A*02:50 (setting [25]), at most 0.1 nM.

With FPMIIGSEL, the Kd is 2130 nM with HLA-B*51:01 [14]; at least 20000 nM in the test with HLA-C*05:01 (setting [16]); at least 5000 nM in the test with HLA-B*15:42; 156 nM with HLA-B*83:01; at least 5000 nM in the test with HLA-B*45:06.

These data come from the Immune Epitope Database (IEDB).
